Experimental data: publication PMC6331220

Molecular target: T1, BsSsbA (Bacillus subtilis, UniProt P37455 1-104)
T1 sequence: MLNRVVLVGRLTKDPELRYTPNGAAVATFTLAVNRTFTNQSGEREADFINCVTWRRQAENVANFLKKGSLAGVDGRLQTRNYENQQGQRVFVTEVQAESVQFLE
Experiment: X-ray crystallography

TTTTTTTTTTTTTTTTTTTTTTTTTTTTTTTTTTT (ssDNA) [dT35]: binds.
